Consider 23 molecules from publication PMC7345789.

The experiment concerns the target Gab2 (Homo sapiens). In words: flow.

Numbering of substitutions follows the chain as printed.

B1: SHP2 N-SH2, Q06124 (protein)
chain: WFHPNITGVEAENLLLTRGVDGSFLARPSKSNPGDFTLSVRRNGAVTHIKVQNTGDYYDLYGGEKFATLAELVQYYMEHHGQLKEKNGDVIELKYPL
In the case of B1, the Kd – broadly, the constant that tells how readily two partners part at equilibrium – came out at 30 nM.

B2: SHP2 N-SH2, Q06124 (protein)
chain: B1 chain with V51I, L60A
B2 registered a Kd of 860 nM.

B3: SHP2 N-SH2, Q06124 (protein)
chain: B1 chain with T7S, V51I
Consider B3, for which the Kd is 80 nM.

B4: SHP2 N-SH2, Q06124 (protein)
chain: B1 chain with V51I, L69A
Take B4: the Kd turned out to be 210 nM.

B5: SHP2 N-SH2, Q06124 (protein)
chain: B1 chain with V51I, V73A
In the case of B5, the Kd stood at 190 nM.

B6: SHP2 N-SH2, Q06124 (protein)
chain: B1 chain with T47S, V51I
With B6, the Kd is 10 nM.

B7: SHP2 N-SH2, Q06124 (protein)
chain: B1 chain with I6V, V51I
As for B7, the Kd is 80 nM.

B8: SHP2 N-SH2, Q06124 (protein)
chain: B1 chain with V40A, V51I
B8 registered a Kd of 230 nM.

B9: SHP2 N-SH2, Q06124 (protein)
chain: B1 chain with V20A, V51I
Molecule B9 yielded a Kd of 100 nM.

B10: SHP2 N-SH2, Q06124 (protein)
chain: B1 chain with V51I, I91V
Consider B10, for which the Kd was 100 nM.

B11: SHP2 N-SH2, Q06124 (protein)
chain: B1 chain with T37S, V51I
In the case of B11, the Kd was found to be 5 nM.

B12: SHP2 N-SH2, Q06124 (protein)
chain: B1 chain with A45G, V51I
In turn, B12 registered a Kd of 70 nM.

B13: SHP2 N-SH2, Q06124 (protein)
chain: B1 chain with V9A, V51I
The molecule B13 came in with a dissociation constant Kd of 160 nM.

B14: SHP2 N-SH2, Q06124 (protein)
chain: B1 chain with L14A, V51I
As for B14, the Kd was 170 nM.

B15: SHP2 N-SH2, Q06124 (protein)
chain: B1 chain with A26G, V51I
The molecule B15 registered a Kd of 70 nM.

B16: SHP2 N-SH2, Q06124 (protein)
chain: B1 chain with T17S, V51I
B16 returned a Kd of 100 nM.

B17: SHP2 N-SH2, Q06124 (protein)
chain: B1 chain with V51I, L83A
On to B17, for which the equilibrium dissociation constant (Kd) was 730 nM.

B18: SHP2 N-SH2, Q06124 (protein)
chain: B1 chain with V51I, V90A
For the molecule B18, the Kd turned out to be 130 nM.

B19: SHP2 N-SH2, Q06124 (protein)
chain: B1 chain with V51I, A70G
For the molecule B19, the Kd was determined as 110 nM.

B20: SHP2 N-SH2, Q06124 (protein)
chain: B1 chain with V51I, T68S
With B20, the Kd was found to be 110 nM.

B21: SHP2 N-SH2, Q06124 (protein)
chain: B1 chain with I49V, V51I
Molecule B21 displayed a dissociation constant (Kd) of 150 nM.

B22: SHP2 N-SH2, Q06124 (protein)
chain: B1 chain with V51I, T54S
As to B22, the Kd is 120 nM.

B23: SHP2 N-SH2, Q06124 (protein)
chain: B1 chain with V51I, A67G
Turning to B23, the Kd is 170 nM.
